Assay: protein stability index of a GFP-peptide fusion (GPS, HEK-293T) (PSI 1-6); higher = more stable
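Note: lentivirally expressed fusions sorted by FACS into six bins by GFP to DsRed ratio, PSI derived from sequencing read proportions per bin multiplied by bin number.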

**Q.** With FTPPTSLTRAGMSYYNSPGLHVQH as the protein, how does the protein stability index (parent: IOH61736_64, c terminus: a fixed tail appended) read?
**A.** 1.82

**Q.** With LPVETLGPASRMDPESERALQAPH as the protein, how does the protein stability index (parent: IOH61084_4, c terminus: a fixed tail appended) read?
**A.** 4.39

**Q.** With LLQRELMVPGTRHSAVLRDLRSGT [TNXB WT] as the protein, how does the protein stability index (parent: IOH81617_23, c terminus: a fixed tail appended) read?
**A.** 2.54

**Q.** With CRNCINLQNEAQKRESFLKYKCLL as the protein, how does the protein stability index (parent: IOH62149_105, c terminus: a fixed tail appended) read?
**A.** 2

**Q.** For ASVTIQARAEQEEEFISNTLFKKI, which protein stability index (parent: IOH61736_17, c terminus: a fixed tail appended) is on record?
**A.** 3.51

**Q.** With TASTKNCMVGYDMGATRCDFTLSK as the protein, how does the protein stability index (parent: IOH80553_117, c terminus: a fixed tail appended) read?
**A.** 2.15

**Q.** With YCSIKCQQEHWHAEHKRTCRRKR [ZMYND11 WT] as the protein, how does the protein stability index (parent: IOH62570_82, c terminus: native) read?
**A.** 2.53

**Q.** Which protein stability index (parent: IOH61079_108, c terminus: a fixed tail appended) does the source give for EADKNDKAVKDLVVLLFETALLSS here?
**A.** 1.84

**Q.** For SLGKQKVFIIRKSLLDELMEVQHF [SOAT2 WT], which protein stability index (parent: IOH63195_17, c terminus: a fixed tail appended) is on record?
**A.** 2.25

**Q.** With KKAQGKTQQNRKLTDFYPVRRSSR as the protein, how does the protein stability index (parent: IOH80936_29, c terminus: a fixed tail appended) read?
**A.** 2.19

**Q.** With DDLTVVDAASLRRQIIKLNRRLQL as the protein, how does the protein stability index (parent: IOH62657_32, c terminus: a fixed tail appended) read?
**A.** 2.1

**Q.** With EKQKQPRWREGTKDSHDPLPSWAE as the protein, how does the protein stability index (parent: IOH61084_93, c terminus: a fixed tail appended) read?
**A.** 2.16

**Q.** For YPEQSKGFHKAGSMLPPVNFSIVP, which protein stability index (parent: IOH63376_36, c terminus: a fixed tail appended) is on record?
**A.** 1.94

**Q.** Which protein stability index (parent: IOH62663_80, c terminus: a fixed tail appended) does the source give for HDPLYGKLFSTYLRPPHTSRGTSQ [LPCAT4 WT] here?
**A.** 2.6

**Q.** With TPMTIPEFFRESVNRFGTYPALAS as the protein, how does the protein stability index (parent: IOH62594_9, c terminus: a fixed tail appended) read?
**A.** 2.12

**Q.** With EADYEDDSKIAFLMQLQDIQYLTE as the protein, how does the protein stability index (parent: IOH62149_110, c terminus: a fixed tail appended) read?
**A.** 3.05

**Q.** With FTSPDYQQQCHEMAERLEDSVLKG [C1orf55 WT] as the protein, how does the protein stability index (parent: IOH61664_26, c terminus: a fixed tail appended) read?
**A.** 2.15

**Q.** With WIVDKQHVYIGSAGLDWQSLGQMK as the protein, how does the protein stability index (parent: IOH63495_23, c terminus: a fixed tail appended) read?
**A.** 1.79

**Q.** With FAQADALKGTLVSTLKEVKPTVFI as the protein, how does the protein stability index (parent: IOH62594_50, c terminus: a fixed tail appended) read?
**A.** 1.64

**Q.** With CCSSADICPKCWTLMTMAIRIIDR [PRIM1 WT] as the protein, how does the protein stability index (parent: IOH60890_21, c terminus: a fixed tail appended) read?
**A.** 1.95

**Q.** With RNALENIRKEMKLLEQAGSLKGSL [CRYL1 WT] as the protein, how does the protein stability index (parent: IOH81349_8, c terminus: a fixed tail appended) read?
**A.** 3.44

**Q.** Which protein stability index (parent: IOH63384_35, c terminus: a fixed tail appended) does the source give for ELRNVQDVVEDYKKRYEEEINKRT here?
**A.** 3.49

**Q.** With YTEGISQRMRVPEKLKVAPPNADL as the protein, how does the protein stability index (parent: IOH62657_3, c terminus: a fixed tail appended) read?
**A.** 2.94

**Q.** For LQQLRARLQGLEADCVRGPDGVCL, which protein stability index (parent: IOH61084_56, c terminus: a fixed tail appended) is on record?
**A.** 2.22

**Q.** With STTALGDKQRKANESKGTRESWDS [TCEB3B WT] as the protein, how does the protein stability index (parent: IOH63382_68, c terminus: a fixed tail appended) read?
**A.** 3.77

**Q.** Which protein stability index (parent: IOH80445_141, c terminus: a fixed tail appended) does the source give for KKPPEESTCFERPCFKWYTSPWSE [ADAMTSL2 WT] here?
**A.** 2.4

**Q.** For FDKEWVAKQTKRMLDMKVNPIQGL, which protein stability index (parent: IOH62819_23, c terminus: a fixed tail appended) is on record?
**A.** 1.75

**Q.** With SKPKTFQAYLDDCHRRYSCAHCRA [YPEL3 WT] as the protein, how does the protein stability index (parent: IOH80494_8, c terminus: a fixed tail appended) read?
**A.** 1.87

**Q.** With KRTYWPDLDAKIREALVLRSVRVR as the protein, how does the protein stability index (parent: IOH63495_45, c terminus: a fixed tail appended) read?
**A.** 2.02

**Q.** Which protein stability index (parent: IOH80936_41, c terminus: a fixed tail appended) does the source give for FVVEYHGDLIEITDAKKREALYAQ here?
**A.** 2.1

**Q.** Which protein stability index (parent: IOH61428_28, c terminus: a fixed tail appended) does the source give for YQSGGRIRRPVNVPIDIFSEEIRF here?
**A.** 2

**Q.** For LTSDLYAPMVAGALARLGTVTVIS [SLC25A39 WT], which protein stability index (parent: IOH63154_27, c terminus: a fixed tail appended) is on record?
**A.** 2.94

**Q.** With GERVVINISGLRFETQLKTLCQFP as the protein, how does the protein stability index (parent: IOH61428_18, c terminus: a fixed tail appended) read?
**A.** 2.31

**Q.** Which protein stability index (parent: IOH61084_108, c terminus: a fixed tail appended) does the source give for FGEDGIFRHDRLRFRDFVDALEDS here?
**A.** 2.59

**Q.** Which protein stability index (parent: IOH80698_58, c terminus: a fixed tail appended) does the source give for NSISSDKEATVPCTEILTEKKDTI here?
**A.** 5.37

**Q.** With YHTSQSGDEMTSLSEYVSRMKETQ as the protein, how does the protein stability index (parent: IOH61079_77, c terminus: a fixed tail appended) read?
**A.** 3.7

**Q.** For KIREKEEWIKLDYHRRHNPKTNED, which protein stability index (parent: IOH62149_64, c terminus: a fixed tail appended) is on record?
**A.** 4.36

**Q.** With VAHVKHLSASQKALKEKEKASWSS as the protein, how does the protein stability index (parent: IOH62819_9, c terminus: a fixed tail appended) read?
**A.** 3.21

**Q.** With QKELQDVGQSLRIKEQEVCKLQEQ [SASS6 WT] as the protein, how does the protein stability index (parent: IOH63533_44, c terminus: a fixed tail appended) read?
**A.** 5.02

**Q.** For QVANSAFVERVRKRGFEVVYMTEP, which protein stability index (parent: IOH61079_83, c terminus: a fixed tail appended) is on record?
**A.** 2.26

**Q.** With EILGCPLPDPNNYYHRRNEMTTTD as the protein, how does the protein stability index (parent: IOH80553_49, c terminus: a fixed tail appended) read?
**A.** 3.32

**Q.** For FMPAMQFSIPPWRYDAEVVAIAQK [KIAA1161 WT], which protein stability index (parent: IOH61072_98, c terminus: a fixed tail appended) is on record?
**A.** 1.76

**Q.** Which protein stability index (parent: IOH62976_23, c terminus: a fixed tail appended) does the source give for YSEYPECCVDVKPISQEKIESERA [DUSP5 WT] here?
**A.** 4.09

**Q.** With VTYMNMTAYNKGRLQSSFWIVDKQ as the protein, how does the protein stability index (parent: IOH63495_20, c terminus: a fixed tail appended) read?
**A.** 2.36

**Q.** With MAEISRIQYEMEYTEGISQRMRVP as the protein, how does the protein stability index (parent: IOH62657_1, c terminus: a fixed tail appended) read?
**A.** 2.65

**Q.** With FGSRSLYSLGGVRSLNVASGSGKS as the protein, how does the protein stability index (parent: IOH63384_8, c terminus: a fixed tail appended) read?
**A.** 1.86

**Q.** For LLQRELAQEDSLNKLALQYGCKVA [LYSMD4 WT], which protein stability index (parent: IOH63099_13, c terminus: a fixed tail appended) is on record?
**A.** 1.92

**Q.** For GKQAPRKKAQGKTQQNRKLTDFYP, which protein stability index (parent: IOH80936_28, c terminus: a fixed tail appended) is on record?
**A.** 2.67

**Q.** Which protein stability index (parent: IOH80698_41, c terminus: a fixed tail appended) does the source give for SVIEPVQESSFRSRKIAVEDENDL here?
**A.** 5.18

**Q.** Which protein stability index (parent: IOH63376_32, c terminus: a fixed tail appended) does the source give for GRKKYDIDPRNGIPKLTPGDNPYM here?
**A.** 3.52

**Q.** For CSWKGATKQRIQDQKVPYIFRDNQ [CHIT1 WT], which protein stability index (parent: IOH63601_52, c terminus: a fixed tail appended) is on record?
**A.** 2.59

**Q.** Which protein stability index (parent: IOH61736_20, c terminus: a fixed tail appended) does the source give for TLFKKIQALQKEKETLAVNYEKEE here?
**A.** 3.05

**Q.** For DMVSNIELPTRIHEEVYFEPSSSK, which protein stability index (parent: IOH80698_88, c terminus: a fixed tail appended) is on record?
**A.** 3.89
